Patent publication US20220184124A1

Molecular target: CD19 on Daudi cells (CD19 positive target tumor cells) (UniProt P15391)
Test: cell-based or functional assay

Chain of UniProt P15391 (P15391 20-556 limits assumed): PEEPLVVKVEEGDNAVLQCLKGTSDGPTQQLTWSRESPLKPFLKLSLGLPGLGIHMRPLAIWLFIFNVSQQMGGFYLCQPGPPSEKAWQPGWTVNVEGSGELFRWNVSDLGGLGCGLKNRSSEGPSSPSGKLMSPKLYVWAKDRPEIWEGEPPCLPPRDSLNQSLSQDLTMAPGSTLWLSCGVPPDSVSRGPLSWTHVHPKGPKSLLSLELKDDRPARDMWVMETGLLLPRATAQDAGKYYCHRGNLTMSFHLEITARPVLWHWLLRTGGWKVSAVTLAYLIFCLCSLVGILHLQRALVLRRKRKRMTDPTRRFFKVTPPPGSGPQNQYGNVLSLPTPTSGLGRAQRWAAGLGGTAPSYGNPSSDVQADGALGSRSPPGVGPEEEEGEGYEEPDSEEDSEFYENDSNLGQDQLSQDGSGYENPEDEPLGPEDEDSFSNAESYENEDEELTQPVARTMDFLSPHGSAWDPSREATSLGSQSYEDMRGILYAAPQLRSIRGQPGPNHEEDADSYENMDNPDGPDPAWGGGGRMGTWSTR

- % CD107a+ of CD4+ T cells, 6 hr co-culture with Daudi cells: 30.4%
- % CD107a+ of CD8+ T cells, 6 hr co-culture with Daudi cells: 44.6%
- % CD107a+ of NK cells (CD5-CD56+), co-culture with Daudi cells: 32.5%
- % CD107a+ of NKT cells, 6 hr co-culture with Daudi cells: 48.6%
- % CD107a+ of TCRγδ T cells, co-culture with Daudi cells: 23.2%
- % CD107a+ of residual TCRαβ+ cells, 6 hr co-culture with Daudi cells: 64.8%
- % IFNγ+ of CD8+ T cells, co-culture with Daudi cells: 16.7%
- % IFNγ+ of NKT cells, co-culture with Daudi cells: 24.8%
- % IFNγ+ of TCRγδ T cells, co-culture with Daudi cells: 7.46%
- % IFNγ+ of residual TCRαβ+ cells, co-culture with Daudi cells: 50.9%
- % IL2+ of CD8+ T cells, co-culture with Daudi cells: 0.69%
- % IL2+ of NKT cells, co-culture with Daudi cells: 1.07%
- % IL2+ of TCRγδ T cells, co-culture with Daudi cells: 0.23%
- % IL2+ of residual TCRαβ+ cells, co-culture with Daudi cells: 13.9%
- % TNFα+ of CD8+ T cells, co-culture with Daudi cells: 21.5%
- % TNFα+ of NKT cells, co-culture with Daudi cells: 28.3%
- % TNFα+ of TCRγδ T cells, co-culture with Daudi cells: 12.9%
- % TNFα+ of residual TCRαβ+ cells, co-culture with Daudi cells: 50%
Substance: CD19(4G7) scFv/4-1BB/CD3ζ CAR (receptor)
